The assay has as its target T1, human Claudin-1 (CLDN1) (human, UniProt O95832 1-211).
T1 construct: whole, on cells; Transmembrane tight-junction protein, endogenously expressed on primary human cholangiocytes in the flow cytometry assay
T1 sequence (looked up): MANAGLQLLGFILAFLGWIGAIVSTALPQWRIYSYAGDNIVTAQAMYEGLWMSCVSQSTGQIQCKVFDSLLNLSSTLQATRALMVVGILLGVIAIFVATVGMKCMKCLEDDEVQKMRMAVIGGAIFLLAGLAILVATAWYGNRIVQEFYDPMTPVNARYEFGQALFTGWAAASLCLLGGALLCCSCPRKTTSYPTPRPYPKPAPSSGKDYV
The assay can be described thus: flow cytometry on primary human cholangiocytes (HBEpiC) after 10 ng/ml TNFalpha for 24 h; anti-human AF647 secondary antibody. The procedure:
Primary human cholangiocytes were purchased from Innoprot, Bizkaia, Spain (Human Biliary Epithelial Cells, HBEpiC, ref. P10654; Batch #21614) and cultured on poly-1-lysine-coated surfaces according to manufacturer's instructions. Following stimulation, with 10 ng/ml TNFα for 24 hours, cells were harvested for assessment of CLDN1 expression by flow cytometry using anti-CLDN1 mAb H3L3 (Colpitts et al. 2018) and an anti-human AF647-conjugated secondary antibody.
On the technique in general: A flow cytometer gives signals particle by particle.

B1: anti-CLDN1 mAb H3L3 (antibody, human IgG1, kappa, V domains shown)
VH: QVQLVESGGGVVQPGRSLRLSCLGSGFSFSSYGMNWVRQAPGKGLEWVASISPSGSYFYYADSVKGRFTISRDNSKNTLYLQMTSLRAEDTAIYYCARLPGFNPPFDHWGQGTLVTVSS
VL: DIQMTQSPSSLSASVGDRVTITCKASQNVGGNVDWYQWKPGKAPKLLIYGASNRYTGVPDRFRGSGSGTDFTLTISSLQPEDVATYYCLQYKNNPWTFGGGTKVEIKR
notes: Humanized anti-Claudin-1 monoclonal antibody; also called CLDN1 H3L3; CLDN1-specific H3L3 mAb
For the molecule B1, the binding result was “binds”.

The record behind these values is patent US20260055179A1 (ALENTIS THERAPEUTICS, published 2026).
